Literature values in patent US20250341526A1, “NOVEL DYES” (Quantum-Si Incorporated, priority 2024, published 2025).

tested on: amino acid at a terminal position of a polypeptide; conditions: Table 1, ClpS proteins; amino acid at terminal position; inferred from literature and/or demonstrated by the inventors; cited from earlier work

Molecule	Binding Pref.
PS567: ClpS amino acid recognition protein, SEQ ID NO: 81 (protein, listed as Planctomycetaceae bacterium) MADYEDAGEDALEDDFDHGTVTVAPQKPEPKKQSENKRQANRQPRYNVLLWDSEDHTFEYVEKMLRELFGHIKKQCQIIAEQVDQEGRAVVLTTTLEHAELKRDQIHAYGKDQLEGSKGSMWSTIEAVD	I, L, V
PS556: ClpS amino acid recognition protein, SEQ ID NO: 70 (protein, listed as Blastopirellula marina) MGDSNTSVAEPGEVTVVTTKPAPKKAKPKRQPKYHVVLWNDDDHTYEYVILMMHELFGHPVEKGFQIAKTVDADGRAICLTTTKEHAELKRDQIHAYGKDELIARCRGSMSSTIEPEC	I, L, V
PS560: ClpS amino acid recognition protein, SEQ ID NO: 74 (protein, listed as Planctomycetes bacterium) MTETITTPAERTQTQAEPRSDRAWLWNVVLLDDDEHTYEYVIRMLHTLFGMPVERAFRLAEEVDARGRAVVLTTHKEHAELKRDQVHAFGKDALIASCAGSMSAVLEPAECGSDDED	I, L, V
PS568: ClpS amino acid recognition protein, SEQ ID NO: 82 (protein, listed as Dehalococcoidia bacterium) MTTPSLPTRETEVEERTEVEPERLYHLVLLDDDQHSYQYVIEMLASIFGYGSEKAWTLARIVDTEGRAILETASHAQCERHQSQIHAYGADSRIPTSVGSMSAVIEEAGTPPQT	I, L, V
PS558: ClpS amino acid recognition protein, SEQ ID NO: 72 (protein, listed as Planctomycetia bacterium) MTATTADPDRTTAEKTTKKARRSGQPKRQPRYHVILWNDNDHTYQYVVAMLQQLFGHPATTGLKLATEVDRTGRAVILTTTREHAELKRDQIHAFGADRLLARSKGAMSASIEPEAE	I, L, V
PS563: ClpS amino acid recognition protein, SEQ ID NO: 77 (protein, listed as Acidobacteria bacterium) MSSRSATAYPEVEDDTSDQLQPLYHVILLNDEDHTYDYVIEMLQKIFGFPESKAFSHAVEVDTKGTTILLTCDLEQAERKRDLIHSYGPDWRLPRSLGSMAAVVEPAAG	I, L, V
PS554: ClpS amino acid recognition protein, SEQ ID NO: 68 (protein, listed as Planctomycetia bacterium) MSDSASATVEVQADPPADATARSQPTPARSTGSKPKRQPRYHVVLWNDDDHTYEYVIAMLRRLFGIEPEKGFRIAEEVDQSGRAVVLTTTREHAELKRDQIHAFGADRLLARSKGSMSASIEPEA	I, L, V
PS569: ClpS amino acid recognition protein, SEQ ID NO: 83 (protein, listed as Planctomycetes bacterium) MYSKNQIKIYCSEDDKGQTATPLLEKKPKFAPLYHVILWDDNTHTYEYVIKLLMSLFRMTFEKAYQHTLEVDKKGRTICITTHLEKAELKQEQISNFGPDILMQNSKGPMSATIEPAN	I, L, V
PS557: ClpS amino acid recognition protein, SEQ ID NO: 71 (protein, listed as Planctomycetia bacterium) MPTAASATESAIEDTPAPARPEVDGRTKPKRQPRYHVVLWNDDDHTYQYVVVMLQSLFGHPPERGYRLAKEVDTQGRVIVLTTTREHAELKRDQIHAFGYDRLLARSKGSMKASIEAEE	I, L, V
PS565: ClpS amino acid recognition protein, SEQ ID NO: 79 (protein, listed as Aquisphaera sp.) MSEFDHEHSGDTSVADPIVTTKTAPKPQKHAENETETRRQPPYNVIILNDEEHTFDYVIELLCKVFRHSLATAQELTWRIHLTGRAVVLTTHKELAELKRDQVLAYGPDPRMSVSKGPLDCFIEPAPGG	I, L, V
PS572: ClpS amino acid recognition protein, SEQ ID NO: 86 (protein, listed as Blastopirellula marina) MSSEELSLQTRPKRQPPFGVILHNDDLNSFDYVIDSIRKVFHYELEKCFQLTLEAHETGRSLLWTGTLEGAELKQELLLSCGPDPIMLDKGGLPLKVTLEELPQ	I, L, V
PS561: ClpS amino acid recognition protein, SEQ ID NO: 75 (protein, listed as Roseimaritima sp.) MAELQTAVVEPTTRPEQDEKQSQSRPKRQPRYNVILWDDPDHSYDYVIMMLKELFGHPRQRGHQMAEEVDTTGRVICLTTTMEHAELKRDQIHAYGSDEGITRCKGSMSASIEPVPE	I, L, V
PS374: ClpS amino acid recognition protein, SEQ ID NO: 7 (protein) MRWEDPLAAEPVTPGVAPVVEEETDAAVETPWRVILYDDDIHTFEEVILQLMKATGCTPEQGERHAWTVHTRGKDCVYQGDFFDCFRVQGVLREIQLVTEIEG	F, Y, W, L
PS577: ClpS amino acid recognition protein, SEQ ID NO: 91 (protein, listed as Tuwongella immobilis) MSASSSQPGTTTKPDLDIQPRLLPPFHVILENDEFHSMEFVIDTLRKVLGVSIERAYQLMMTAHESGQAIIWTGPKEVAELKYEQVIGFHEKRSDGRDLGPLGCRIEPAV	I, L, V
PS575: ClpS amino acid recognition protein, SEQ ID NO: 89 (protein, listed as Leptospira kmetyi) MASTQTPDLNEITEESTKSTGGPWRVVLWDDNEHTYEYVIEMLMEICTMTVEKAFLHAVQVDQEKRTVVFSGEFEHAEHVQERILTYGADPRMSNSKGSMSATLEK	I, L, V
PS576: ClpS amino acid recognition protein, SEQ ID NO: 90 (protein, Leptospira interrogans) MASTQTPDLNEITEESTKSTGGPWRVVLWDDNEHTYEYVIEMLVEICMMTVEKAFLHAVQVDKEKRTVDFSGELEHAEHVQERILNYGADPRMSNSKGSMSATLER	I, L, V
PS570: ClpS amino acid recognition protein, SEQ ID NO: 84 (protein, listed as Leptospira congkakensis) MTGAGASQPSILEETEVRPRLSDGPWKVVLWDDDFHTYEYVIEMLMDVCQMPWEKAFQHAVEVDTRKKTIVFSGELEHAEFVHERILNYGPDPRMGSSKGSMTATLEQ	I, L, V
PS571: ClpS amino acid recognition protein, SEQ ID NO: 85 (protein, listed as Leptospira meyeri) MTSSGASQPSILEETERKPRLSDGPWKVVLWDDDFHTYEYVIEMLMDVCQMPWEKAFQHAVEVDTRKKTIVFFGELEHAEFVHERILNYGPDPRMGTSKGSMTATLEK	I, L, V
PS564: ClpS amino acid recognition protein, SEQ ID NO: 78 (protein, listed as Planctomycetes bacterium) MFEEVVSVAVAEPKTKKQSRTKPKRQPPYHVILWDDTDHTFDYVIKMMGELFRMPREKGYQLAKEVDTSGRAICMTTTLELAELKRDQIHAFGRDDASAHCKGSMSATIEPAEG	I, L, V
PS559: ClpS amino acid recognition protein, SEQ ID NO: 73 (protein, listed as Planctomycetaceae bacterium) MNQAAISPNPDIKPNPSTHKKRASQRQPRYHVILWNDNDHTYHYVVTMLQKLFGHPPRTGIKMATEVDKKGKVIVLTTSREHAELKRDQIHAFGADKLIRRSKGAMAASIEPES	I, L, V
PS555: ClpS amino acid recognition protein, SEQ ID NO: 69 (protein, listed as Planctomycetes bacterium) MADSAQTGVAEPIQETLRRRKLRDDRRPKRQPPYHVILWNDNDHTYAYVVVMLMQLFGYPAEKGYQLASEVDTQGRAVVLTTTKEHAELKRDQIHAYGKDGLIEKCKGSMWATIEPAPGE	I, L, V
PS574: ClpS amino acid recognition protein, SEQ ID NO: 88 (protein, listed as Gemmata obscuriglobus) MANATPTPDVVPEEETETRTRRQPPYAVVLHNDDTNTMDFVVTVLRKVFGYTVEKCVELMLEAHTQGKVAVWIGALEVAELKADQIKSFGPDPHVTKNGHPLGVTVEPAA	I, L, V
PS573: ClpS amino acid recognition protein, SEQ ID NO: 87 (protein, listed as Leptospira fluminis) MSQTPVIEETTVKDPVKTGGPWKVVLWDDDEHTYDYVIEMLMEVCVMTMEQAFHHAVEVDTQKKTVVYSGEFEHAEHIQELILEYGPDPRMAVSKGSMSATLEKS	I, L, V
PS566: ClpS amino acid recognition protein, SEQ ID NO: 80 (protein, listed as Planctomycetaceae bacterium) MSSPSSLDDVQVSTSRAKPANETRTRKQPPYAVIVENDDHHTFLYVIEALMKVCGHAPEKGFVLAQQIHTQGKAMVWSGTLELAELKRDQLRGFGPDNYAPRPVTFPLGVTIEPLP	I, L, V
PS562: ClpS amino acid recognition protein, SEQ ID NO: 76 (protein, listed as Rubripirellula amarantea) MSDQQSMVAEPEVVVHTQDEKKLEKQNKRKKQPRYNVVLWDDTDHSYDYVVLMMKQLFHHPIETGFQIAKQVDKGGKAICLTTTMEHAELKRDQIHAFGKDDLIARCTGSMSATIEPVPE	I, L, V
PS375: ClpS amino acid recognition protein, SEQ ID NO: 8 (protein) MEAEPETKVLASIPGVGTSEPFRVVLFNDEEHSFDEVIFQIIKAVRCSRAKAEALTMEVHNSGRSIVYTGPIEQCIRVSAVLEEIELRTEIQS	F, L
